Data as given in IntAct's records for PubMed 14594812.

B1: Phospholipase D alpha 1 (Arabidopsis thaliana (Mouse-ear cress)), Q38882 (parent)
chain: MAQHLLHGTLHATIYEVDALHGGGVRQGFLGKILANVEETIGVGKGETQLYATIDLQKARVGRTRKIKNEPKNPKWYESFHIYCAHLASDIIFTVKDDNPIGATLIGRAYIPVDQVINGEEVDQWVEILDNDRNPIQGGSKIHVKLQYFHVEEDRNWNMGIKSAKFPGVPYTFFSQRQGCKVSLYQDAHIPDNFVPRIPLAGGKNYEPQRCWEDIFDAISNAKHLIYITGWSVYAEIALVRDSRRPKPGGDVTIGELLKKKASEGVRVLLLVWDDRTSVDVLKKDGLMATHDEETENFFRGSDVHCILCPRNPDDGGSIVQSLQISTMFTHHQKIVVVDSEMPSRGGSEMRRIVSFVGGIDLCDGRYDTPFHSLFRTLDTVHHDDFHQPNFTGAAITKGGPREPWHDIHSRLEGPIAWDVMYNFEQRWSKQGGKDILVKLRDLSDIIITPSPVMFQEDHDVWNVQLFRSIDGGAAAGFPESPEAAAEAGLVSGKDNIIDRSIQDAYIHAIRRAKDFIYVENQYFLGSSFAWAADGITPEDINALHLIPKELSLKIVSKIEKGEKFRVYVVVPMWPEGLPESGSVQAILDWQRRTMEMMYKDVIQALRAQGLEEDPRNYLTFFCLGNREVKKDGEYEPAEKPDPDTDYMRAQEARRFMIYVHTKMMIVDDEYIIIGSANINQRSMDGARDSEIAMGGYQPHHLSHRQPARGQIHGFRMSLWYEHLGMLDETFLDPSSLECIEKVNRISDKYWDFYSSESLEHDLPGHLLRYPIGVASEGDITELPGFEFFPDTKARILGTKSDYLPPILTT
partner: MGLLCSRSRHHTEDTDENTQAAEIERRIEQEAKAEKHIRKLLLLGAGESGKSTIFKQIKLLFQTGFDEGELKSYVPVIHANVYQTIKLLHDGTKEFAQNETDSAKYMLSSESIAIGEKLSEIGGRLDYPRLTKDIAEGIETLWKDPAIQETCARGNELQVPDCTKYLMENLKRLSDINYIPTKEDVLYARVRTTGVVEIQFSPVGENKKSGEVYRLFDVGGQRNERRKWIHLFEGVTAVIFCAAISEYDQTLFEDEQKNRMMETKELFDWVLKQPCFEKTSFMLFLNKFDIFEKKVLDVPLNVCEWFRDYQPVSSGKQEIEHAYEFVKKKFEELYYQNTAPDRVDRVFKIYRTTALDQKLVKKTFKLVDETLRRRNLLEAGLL

Variants of: B1
Settings: with gpa1_arath GPA1, P18064

| Variant | effect of a mutation on the interaction |
| --- | --- |
| E563A | decreasing interaction |
| F565A | decreasing interaction |
| K564A | disrupting interaction |

Variants of: B1
Settings: with gpa1_arath GPA1, P18064
Remark: another data set of the same source

| Variant | effect of a mutation on the interaction |
| --- | --- |
| K564A | decreasing interaction |
